Earlier results in paper PMC9441699 (Frontiers in Cellular and Infection Microbiology, 2022).

Test system: pseudotyped SARS-CoV

B1: Lactoferrin: antiviral milk protein (protein, UniProt P02788 20-710, looked up)
Lactotransferrin: GRRRSVQWCAVSQPEATKCFQWQRNMRKVRGPPVSCIKRDSPIQCIQAIAENRADAVTLDGGFIYEAGLAPYKLRPVAAEVYGTERQPRTHYYAVAVVKKGGSFQLNELQGLKSCHTGLRRTAGWNVPIGTLRPFLNWTGPPEPIEAAVARFFSASCVPGADKGQFPNLCRLCAGTGENKCAFSSQEPYFSYSGAFKCLRDGAGDVAFIRESTVFEDLSDEAERDEYELLCPDNTRKPVDKFKDCHLARVPSHAVVARSVNGKEDAIWNLLRQAQEKFGKDKSPKFQLFGSPSGQKDLLFKDSAIGFSRVPPRIDSGLYLGSGYFTAIQNLRKSEEEVAARRARVVWCAVGEQELRKCNQWSGLSEGSVTCSSASTTEDCIALVLKGEADAMSLDGGYVYTAGKCGLVPVLAENYKSQQSSDPDPNCVDRPVEGYLAVAVVRRSDTSLTWNSVKGKKSCHTAVDRTAGWNIPMGLLFNQTGSCKFDEYFSQSCAPGSDPRSNLCALCIGDEQGENKCVPNSNERYYGYTGAFRCLAENAGDVAFVKDVTVLQNTDGNNNEAWAKDLKLADFALLCLDGKRKPVTEARSCHLAMAPNHAVVSRMDKVERLKQVLLHQQAKFGRNGSDCPDKFCLFQSETKNLLFNDNTECLARLHGKTTYEKYLGPQYVAGITNLKKCSTSPLLEACEFLRK
inhibition of pseudotyped SARS-CoV: 50%
